Measurements taken from PMC7267771.

Legend:
[1] = target: biotin-labeled UB2H domain of P. aeruginosa PBP1B (P. aeruginosa); assay: BLI; UB2H-Biot (25 μg/ml) immobilised on streptavidin biosensors (OctetRED96e); LpoP 0 to 6 μM; HBS-T (10 mM Hepes pH 7.5, 150 mM NaCl, 0.02% Tween); 23°C; responses at equilibrium of two series fitted together
[2] = target: P. aeruginosa PBP1B (P. aeruginosa PA01); assay: SPR; PaPBP1B immobilised on a GLC amine coupling sensorchip (BioRad ProteOn XPR36); analyte in 1:1 serial dilution from 10 μM to 19.5 nM; 25°C; 75 μL/min, 5 min injection; 10 mM Tris/HCl, 150 mM NaCl, 0.05% Triton X-100, pH 7.5; response at equilibrium, non-linear regression assuming one-site saturation
[3] = target: P. aeruginosa PBP1B (P. aeruginosa PA01)
[4] = target: P. aeruginosa CpoB lacking its periplasmic export sequence (residues 22-274) (P. aeruginosa PA01); assay: SEC; PaCpoB alone, last step of its purification, procedure as for LpoP

Chain of biotin-labeled UB2H domain of P. aeruginosa PBP1B (P. aeruginosa) (main, as listed by the source): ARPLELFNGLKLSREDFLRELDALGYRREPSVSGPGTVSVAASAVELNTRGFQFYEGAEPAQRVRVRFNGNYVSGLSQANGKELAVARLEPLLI

LpoP (residues 20-259), preparation for NMR and BLI (natural protein)
Kd [1]: 400 nM

LpoP lacking its lipoprotein sorting sequence (residues 20-259) (natural protein)
Kd [2]: 4200 nM | GTase rate of PaPBP1B with and without LpoP (continuous fluorescence assay, 0.5 μM PaPBP1B, 10 μM LpoP, 37°C) [3]: 4.5 fold | transpeptidation products made by PaPBP1B with and without LpoP (endpoint TPase assay with radiolabelled lipid II, 10 μM LpoP, 37°C, 3 h) [3]: 2 fold

P. aeruginosa CpoB lacking its periplasmic export sequence (residues 22-274) (natural protein)
stoichiometry N [4]: 3
